The text below walks through data of publication PMC1802081 (BMC Structural Biology, 2007).

B1: ActR-IIBECD D63A (receptor, UniProt P27040 19-137, looked up)
chain: SGRGEAETRECIYYNANWELERTNQSGLERCEGEQDKRLHCYASWRNSSGTIELVKKGCWLDAFNCYDRQECVATEENPQVYFCCCEGNFCNERFTHLPEPGGPEVTYEPPPTAPTLLT
notes: source: E. coli OrigamiB (DE3), purified (Ni2+-IMAC, thrombin cleavage, anion exchange, RP-HPLC)
B2: ActR-IIBECD K37A (receptor, UniProt P27040 19-137, looked up)
chain: B1 chain with K37A, A63D
notes: as for B1
B3: ActR-IIBECD K56A (receptor, UniProt P27040 19-137, looked up)
chain: B1 chain with K56A, A63D
notes: as for B1
B4: ActR-IIBECD E34A (receptor, UniProt P27040 19-137, looked up)
chain: B1 chain with E34A, A63D
notes: as for B1
B5: ActR-IIBECD Q80A (receptor, UniProt P27040 19-137, looked up)
chain: B1 chain with A63D, Q80A
notes: as for B1
B6: ActR-IIBECD Y42A (receptor, UniProt P27040 19-137, looked up)
chain: B1 chain with Y42A, A63D
notes: as for B1
B7: ActR-IIBECD R46A (receptor, UniProt P27040 19-137, looked up)
chain: B1 chain with R46A, A63D
notes: as for B1
B8: ActR-IIBECD L61P (receptor, UniProt P27040 19-137, looked up)
chain: B1 chain with L61P, A63D
notes: also called ActR-IIBL61P; source: E. coli OrigamiB (DE3), purified (Ni2+-IMAC, thrombin cleavage, anion exchange, RP-HPLC)
B9: ActR-IIBECD L61A (receptor, UniProt P27040 19-137, looked up)
chain: B1 chain with L61A, A63D
notes: also called ActR-IIBL61A; source: E. coli OrigamiB (DE3), purified (Ni2+-IMAC, thrombin cleavage, anion exchange, RP-HPLC)
B10: BMP-7 (CHO cells, R&D Systems) (ligand, UniProt P18075 293-431, looked up)
chain: STGSKQRSQNRSKTPKNQEALRMANVAENSSSDQRQACKKHELYVSFRDLGWQDWIIAPEGYAAYYCEGECAFPLNSYMNATNHAIVQTLVHFINPETVPKPCCAPTQLNAISVLYFDDSSNVILKKYRNMVVRACGCH
modifications: biotin (biotinylated for the biosensor; site not stated)
notes: bone morphogenetic protein 7 (BMP-7), mature ligand; source: bought: R&D Systems (CHO cells)
B11: BMPR-II receptor ectodomain (receptor, UniProt Q13873 27-150, looked up)
chain: SQNQERLCAFKDPYQQDLGIGESRISHENGTILCSKGSTCYGLWEKSKGDINLVKQGCWSHIGDPQECHYEECVVTTTPPSIQNGTYRFCCCSTDLCNVNFTENFPPPDTTPLSPPHSFNRDET
notes: BMP type II receptor (BMPR-II), extracellular domain; also called BMPR-IIECD; source: expressed and purified as described earlier [28]

Residue numbers refer to the chain shown, from its start.

In one test the target is B10. In words: SPR; BIACORE 2000; biotinylated ligand on a streptavidin-modified CM5 chip (about 200 RU); receptor ectodomain as analyte at 1, 2, 3, 5, 10, 20 and 50 uM; HBS500 (10 mM HEPES pH 7.4, 500 mM NaCl, 3.4 mM EDTA, 0.005% P20); apparent KD from the dose dependence of equilibrium binding. To be noted: both partners purified.
On to B1, for which the “rel. KD (against wildtype ActR-IIBECD on the same ligand)” value (“rel. KD” for short) worked out at 6.7 fold.
On the same count and under the same terms, the figure for B2 is 0.3 fold.
Same read-out and setting: the figure for B3 is 14 fold.
As for B4, the “rel. KD” value is 1.8 fold.
Turning to B5, the “rel. KD” value came to 1 fold.
As for B6, the “rel. KD” value was 49 fold.
Same read-out and setting: the figure for B7 is 3.3 fold; for B8 it is 19 fold.
Still for that read-out and setting: the figure for B9 is 6.4 fold.

A further test has as its target T1, activin A (Sf9 cells) (UniProt P08476 311-426, biotin (biotinylated for the biosensor; site not stated)).
T1 construct: activin A (dimer of inhibin beta A chains), mature ligand; also called Act-A; source: Sf9 cells [59]
T1 sequence (looked up): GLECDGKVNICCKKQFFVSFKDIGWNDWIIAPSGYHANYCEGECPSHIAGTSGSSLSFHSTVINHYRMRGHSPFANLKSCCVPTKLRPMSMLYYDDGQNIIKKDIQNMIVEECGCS
Described as above. To be noted: both partners purified.
On to B1, for which the “rel. KD” value amounted to 8.6 fold.
On the same count and under the same terms, the figure for B2 is 0.7 fold.
The same measure, in the same setting: the figure for B3 is 2.7 fold; for B4 it is 1 fold; for B5 it is 1.1 fold.
On the same count and under the same terms, the figure for B6 is 290 fold; for B7 it is 2.9 fold.
In the case of B8, the “rel. KD” value came out at 2510 fold.
The same measure, in the same setting: the figure for B9 is 24 fold.

Another test concerns the target T2, glycosylated BMP-2 expressed in CHO cells (UniProt P12643 283-396, glycosylated; biotin (biotinylated for the biosensor; site not stated)).
T2 construct: bone morphogenetic protein 2 (BMP-2), mature ligand; also called BMP-2 (CHO cells, R&D Systems); source: bought: R&D Systems (CHO cells)
The description is as above. To be noted: both partners purified.
As for B1, the “rel. KD” value is 9.6 fold.
Still for that read-out and setting: the figure for B2 is 6.1 fold.
Consider B3, for which the “rel. KD” value was 11 fold.
Same read-out and setting: the figure for B4 is 1 fold.
The same measure, in the same setting: the figure for B5 is 1.3 fold; for B6 it is 61 fold.
The same measure, in the same setting: the figure for B7 is 8.4 fold; for B8 it is 7.9 fold; for B9 it is 6.4 fold.

The next test addresses T3, ActR-II receptor ectodomain (UniProt P27037 20-135).
T3 construct: activin receptor type II (ActR-II), extracellular domain; also called ActR-IIECD; source: expressed and purified as described earlier [28]
The test is described as above. To be noted: both partners purified.
For B10, the Kd was found to be 0.43 µM.

For a further test, the target named is B10. The test is described as above. To be noted: both partners purified. The source holds these as a separate data set.
Take B11: the Kd worked out at 32 µM.
